“Also recorded” adds a separate entry of the source. Where no end group is shown, it is not given here. [ ]: non-standard residue; d: D form. Met(O) = CS(=O)CC[C@H](N)C(=O)O
Assays:
[1] = molecular target: T1, full-length receptor protein expressed CHO cells (CHO-19P2); human pituitary receptor protein (hGR3) (Homo sapiens, UniProt P49683); test: release of arachidonic acid metabolites from CHO-19P2 cells; assay type: cell-based; settings: for arachidonic acid metabolite-releasing activity: amount of [3H]arachidonic acid metabolites, 10^−12 M-10^−6 M in 0.05% BSA-HBSS
T1 construct: to construct a full-length receptor protein expression plasmid pAKKO-19P2; expressed in transfected cells; host or cells: CHO dhfr- cells transfected with pAKKO-19P2 (CHO-19P2; clone CHO-19P2-9)
T1 sequence (P49683 1-370): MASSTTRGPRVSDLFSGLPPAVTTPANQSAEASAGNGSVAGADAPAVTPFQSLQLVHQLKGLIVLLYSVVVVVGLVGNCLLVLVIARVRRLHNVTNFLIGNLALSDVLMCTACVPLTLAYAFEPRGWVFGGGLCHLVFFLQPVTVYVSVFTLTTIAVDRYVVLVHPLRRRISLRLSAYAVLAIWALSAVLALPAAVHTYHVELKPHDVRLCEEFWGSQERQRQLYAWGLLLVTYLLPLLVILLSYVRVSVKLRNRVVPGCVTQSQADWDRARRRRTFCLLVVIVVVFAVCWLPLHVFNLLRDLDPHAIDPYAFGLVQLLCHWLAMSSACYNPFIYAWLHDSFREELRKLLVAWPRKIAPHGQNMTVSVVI
Procedure: The full-length receptor protein-expressed CHO cells and mock CHO cells were seeded in a 24-well plate, 0.5×10^5 cells/well, and cultured for 24 hours. Then, [^3H] arachidonic acid was added at a final concentration of 0.25 μCi/well. Sixteen (16) hours after addition of [^3H] arachidonic acid, the cells were rinsed with 0.05% BSA-HBSS and the above-mentioned crude peptide fraction was added, 400 μl/well. The mixture was incubated at 37° C. for 30 minutes and a 300 μl portion of the reaction mixture (400 μl) was added to 4 ml of a scintillator and the amount of [^3H] arachidonic acid metabolite released into the reaction mixture was determined with a scintillation counter.
The activity of the peptide (19P2-L31) synthesized in Example 21 to specifically release arachidonic acid metabolites from CHO-19P2 cells was assayed in the same manner as Example 11. The synthetic peptide was dissolved in degassed dH20 at a concentration of 10^−3M and diluted with 0.05% BSA-HBSS and the activity to promote release of arachidonic acid metabolites from CHO-19P2 cells at each concentration was assayed using the amount of [^3H]arachidonic acid metabolites as the indicator.
The activity of the synthetic equivalent (19P2-L20) of natural peptide P-2 as synthesized in Example 23 to specifically promote release of arachidonic acid metabolites from CHO-19P2 cells was determined as in Example 11. Thus, the synthetic peptide was dissolved in degassed dH2O at a final concentration of 10^−3M and this solution was serially diluted with 0.05% BAS-HBSS. The activity to specifically promote release of arachidonic acid metabolites from CHO-19P2 cells at each concentration was assayed using the amount of [^3H]arachidonic acid metabolites as the indicator.

[2] = plasma growth hormone (GH) level in freely moving rats, GHRH-induced; assay type: in vivo, male Wistar rats; settings: 5 μg/kg GHRH intravenously
Procedure: Mature male Wistar rats were anesthetized with pentobarbital 50 mg/kg i.p. and, as in Example 41, a stainless-steel guide cannula AG-12 (0.4 mm in. dia., 0.5 mm out. dia., EICOM) was implanted in position with its tip situated in the upper part of the third ventricle. After the operation the rats were housed in individual cages and kept for at least 3 days for recuperation and, then, a cannula (30 cm long, 0.5 mm in. dia., 0.9 mm out. dia., Natsume Seisakusho) filled with heparin (200 U/ml)-containing saline was inserted into the right atrium from the right jugular vein under pentobarbital anesthesia. The rats were maintained overnight for complete arousal from anesthesia and then transferred to transparent acrylic cages (30 cm×30 cm×35 cm). A 1 ml tuberculin syringe with a 24-G needle (both by Termo) was connected to the cannula inserted in the atrium and 300 μl of blood was drawn. To prevent clotting, the syringe was filled with 20 μl of saline containing 200 U/ml of heparin beforehand. […] The concentrations of GH in the plasma were determined by radioimmunoassay.
The results were expressed as a mean±S.E.M. To test for significant difference between the group treated with 19P2-L31 dissolved in PBS and the control group treated with PBS alone, Student's t-test was used. […]

| Substance | arachidonic acid metabolite-releasing activity compared with that of 19P2-L31 [1] | arachidonic acid metabolite-releasing activity [1] | plasma GH level [2] |
| --- | --- | --- | --- |
| 19P2-L31(O): the methionine-oxidation product of 19P2-L31 synthesized in Example 22 (SRAHQHS[Met(O)]EIRTPDINPAWYAGRGIRPVGRF-NH2; N-terminus assumed; SMILES CC[C@H](C)[C@H](NC(=O)CNC(=O)[C@H](CCCNC(=N)N)NC(=O)CNC(=O)[C@H](C)NC(=O)[C@H](Cc1ccc(O)cc1)NC(=O)[C@H](Cc1c[nH]c2ccccc12)NC(=O)[C@H](C)NC(=O)[C@@H]1CCCN1C(=O)[C@H](CC(N)=O)NC(=O)[C@@H](NC(=O)[C@H](CC(=O)O)NC(=O)[C@@H]1CCCN1C(=O)[C@@H](NC(=O)[C@H](CCCNC(=N)N)NC(=O)[C@@H](NC(=O)[C@H](CCC(=O)O)NC(=O)[C@H](CCS(C)=O)NC(=O)[C@H](CO)NC(=O)[C@H](Cc1c[nH]cn1)NC(=O)[C@H](CCC(N)=O)NC(=O)[C@H](Cc1c[nH]cn1)NC(=O)[C@H](C)NC(=O)[C@H](CCCNC(=N)N)NC(=O)[C@@H](N)CO)[C@@H](C)CC)[C@@H](C)O)[C@@H](C)CC)C(=O)N[C@@H](CCCNC(=N)N)C(=O)N1CCC[C@H]1C(=O)N[C@H](C(=O)NCC(=O)N[C@@H](CCCNC(=N)N)C(=O)N[C@@H](Cc1ccccc1)C(N)=O)C(C)C) | equivalent to the activity of 19P2-L31 | found in a dose-dependent manner |  |
| GHRH: Growth hormone releasing hormone (YADAIFTNSYRKVLGQLSARKLLQDIMSRQQGESNQERGARARL; ends and bridges not checked; UniProt P01286 32-75, looked up) [reference compound] |  |  | elevated the plasma GH level |
| Thr-Pro-Asp-Ile-Aln-Pro-Ala-Trp-Tyr-Ala-Gly-Arg-Gly-Ile-Arg-Pro-Val-Gly-Arg-Phe-NH2 (TPDINPAWYAGRGIRPVGRF-NH2; also: position 5 written 'Aln' in name, letter N) [19P2-L20] | in nearly the same degree as 19P2-L31 | concentration-dependent arachidonic acid metabolite-releasing activity was detected over the range of 10^−12-10^−6M; also recorded: found in a dose-dependent manner |  |

From patent US6794491B1, “Polypeptides, their production and use” (Takeda Chemical Industries, Ltd., priority 1995, dated 2004)
